Laboratory results: patent US20220332800A1 (Takeda / Millennium, published 2022)
Numbering of substitutions follows the chain as printed.

B1: anti-ZIKV antibody 11-3 (antibody, V domains shown)
VH: QEQLVESGGGLVQPEGSLTITCTGSGFSFSSRFYMCWVRQAPGKGLEWIACIYGGSSGSTYYASWAKGRFTISKTSSTTVTLQISSLTAADTATYFCARGGSTAAAGFNLWGPGTLLTVSS
VL: DVVMTQTPASVSATVGGTVTIKCQASEDIYNLLAWYQQKPGQPPKLLIYYASTLASGVPSRFKGSGSGTEFTLTISDLECADAATYYCQCNDYGGTYVPNAFGGGTEVVVKG
notes: also called clone 11-3
B2: anti-ZIKV antibody 242-3 (antibody, V domains shown)
VH: QAQLEESGGDLVKPEGSLTLTCTASGFSFTDRHYMCWIRQAPGKGLEWIACVYPGSSGSTYYASWARGRFTISKTSSTTVTLRMTSLTAADTATYFCARSSYPDSSGYSYGMDLWGPGTLVTVSS
VL: DIVMTQTPASVEAAVGGTVTIKCQASQNINSNLAWYQQKPGQRPKFLMYLTSKLASGVPSRFRGSGSGTQFTLTISDLECADAATYYCQTYYDISNYGYAFGGGTEVVVK
notes: also called clone 242-3
B3: anti-ZIKV antibody 270-12 (antibody, V domains shown)
VH: B2 VH with I38V
VL: DIVMTQTPASVEAAVGGTVTIKCQASQDINSNLAWYQQKPGQRPKFLMYLTSKLASGVPSRFRGSGSGTQFTLTISDLECADAATYYCQTYYDISNYGYAFGGGTEVVVKG
notes: also called clone 270-12
B4: anti-ZIKV antibody 78-2 (antibody, V domains shown)
VH: QQQLVESGGGLVKPGASLTLNCKASGLDFSTNSYMCWVRQAPGKGLEWIACIYVGDSSEIYYASWAKGRFTISKTSSTTVTLQMTSLTAADTATYFCARDLPSFTAPYAGYLRLWGPGTLVTVSS
VL: QPVLTQPPSLSASLGTTARLTCTLRTGYNVGDYPLLWLQRVPGRPPRYLLTYHTEEFKHQGSGVHSRFSGSKDASENAGVLSISGLQPEDEANYYCYTVHATESSLHYVFGGGTQLTVTG
notes: also called clone 78-2
B5: anti-ZIKV antibody 289-3 (antibody, V domains shown)
VH: QEELEESGGDLVKPGASLTLTCKASGFSFSSGAYICWVRQAPGKGPEWIACIYTGDGRTYYANWAKRRFTISSSSSTTVALEMPSLTDADTATYFCARAIAVGAGYGVGNYFTLWGPGTLVTVSS
VL: DIVMTQTPSSVSAAVGGTVTINCHASENIYGYLSWYQQKPGQPPKLLIYKASTLASGVPSRFKGSGAGTQFTLTITALECADAATYYCQSYYTSSSNADGSENAFGGGTEVVVEG
notes: also called clone 289-3; subclone 289-3
B6: anti-ZIKV antibody 306-2 (antibody, V domains shown)
VH: QSLEESGGDLVKPGASLTLTCTASGFDFSDRYYMCWVRQAPGKGLEWIGCIYVGSGDTYYASWAKGRFTISRTSSTTVTLQMTRLTAADTATYFCARHPGTYFTLWGPGTLVTVSS
VL: DVVMTQTPSSVSAAVGGTVTINCQASQNIVNNLAWYQQRPGQPPKLLIYDTSTLASGVPSRFKGSGSGTEFTLTISDLECADAATYYCQTYYYYNKIINGFGGGTEVVVKG

target: T1, ZIKV-VLP (Native Antigen Inc.) (Zika virus); assay: BLI binning on ZIKV-VLP; 1st mAb: C10
T1 construct: also called Zika VLP; ZVLP

| Binder | response of 2nd mAb |
| --- | --- |
| B1 | 3.14 |
| B2 | 5.12 |
| B3 | 4.27 |
| B4 | 3.41 |
| B5 | 4.55 |
| B6 | 4.54 |

target: T1, ZIKV-VLP (Native Antigen Inc.); assay: BLI binning on ZIKV-VLP; 1st mAb (row): 270-12

| Binder | response of 2nd mAb |
| --- | --- |
| B2 | 0.0325 |
| B3 | 0.0171 |
| B5 | 0.0064 |
| B6 | 0.0125 |

target: T1, ZIKV-VLP (Native Antigen Inc.); assay: BLI binning on ZIKV-VLP; 1st mAb: Ab2

| Binder | response of 2nd mAb |
| --- | --- |
| B1 | 2.71 |
| B2 | 7.67 |
| B3 | 3.5 |
| B4 | 2.46 |
| B5 | 3.79 |
| B6 | 4.51 |

target: T1, ZIKV-VLP (Native Antigen Inc.); assay: indirect ELISA, subclone supernatant

| Binder | VLP (OD) binding [OD] |
| --- | --- |
| B2 | 0.97 |
| B5 | 0.94 |
| B6 | 1.15 |

target: T1, ZIKV-VLP (Native Antigen Inc.); assay: BLI binning on ZIKV-VLP; 1st mAb: 4G2

| Binder | response of 2nd mAb |
| --- | --- |
| B1 | 0.75 |
| B2 | 0.93 |
| B3 | 0.91 |
| B4 | 0.52 |
| B5 | 1.04 |
| B6 | 0.64 |

target: T1, ZIKV-VLP (Native Antigen Inc.); assay: BLI binning on ZIKV-VLP; 1st mAb: 242-3

| Binder | response of 2nd mAb |
| --- | --- |
| B1 | 0.42 |
| B2 | 0.08 |
| B3 | 0.04 |
| B4 | 0.33 |
| B5 | 0.07 |
| B6 | 0.04 |

target: T1, ZIKV-VLP (Native Antigen Inc.); assay: BLI binning on ZIKV-VLP; 1st mAb (row): 289-3

| Binder | response of 2nd mAb |
| --- | --- |
| B2 | 0.0219 |
| B3 | 0.0261 |
| B5 | 0.0128 |
| B6 | 0.023 |

target: T1, ZIKV-VLP (Native Antigen Inc.); assay: BLI binning on ZIKV-VLP; 1st mAb: 306-2

| Binder | response of 2nd mAb |
| --- | --- |
| B1 | 0.43 |
| B2 | 0.08 |
| B3 | 0.31 |
| B4 | 0.28 |
| B5 | 0.24 |
| B6 | 0.01 |

target: T1, ZIKV-VLP (Native Antigen Inc.); assay: BLI binning on ZIKV-VLP; 1st mAb: 270-12

| Binder | response of 2nd mAb |
| --- | --- |
| B1 | 0.38 |
| B2 | 0.04 |
| B3 | 0.02 |
| B4 | 0.28 |
| B5 | 0.02 |
| B6 | -0.01 |

target: T1, ZIKV-VLP (Native Antigen Inc.); assay: BLI binning on ZIKV-VLP; 1st mAb (row): 306-2

| Binder | response of 2nd mAb |
| --- | --- |
| B2 | 0.0732 |
| B3 | 0.0432 |
| B5 | 0.0428 |
| B6 | 0.0225 |

target: T1, ZIKV-VLP (Native Antigen Inc.); assay: BLI binning on ZIKV-VLP; 1st mAb: 260-2

| Binder | response of 2nd mAb |
| --- | --- |
| B1 | 0.47 |
| B2 | 0.06 |
| B3 | 0 |
| B4 | 0.33 |
| B5 | 0.04 |
| B6 | 0 |

target: T1, ZIKV-VLP (Native Antigen Inc.); assay: BLI binning on ZIKV-VLP; 1st mAb: 289-3

| Binder | response of 2nd mAb |
| --- | --- |
| B1 | 0.42 |
| B2 | 0.04 |
| B3 | 0.02 |
| B4 | 0.32 |
| B5 | 0.02 |
| B6 | 0.03 |

target: T1, ZIKV-VLP (Native Antigen Inc.); assay: BLI binning on ZIKV-VLP; 1st mAb: 102-1

| Binder | response of 2nd mAb |
| --- | --- |
| B1 | 0.45 |
| B2 | 0.1 |
| B3 | 0.07 |
| B4 | 0.32 |
| B5 | 0.09 |
| B6 | 0.07 |

target: T1, ZIKV-VLP (Native Antigen Inc.); assay: BLI binning on ZIKV-VLP; 1st mAb: Ab1

| Binder | response of 2nd mAb |
| --- | --- |
| B1 | 0.41 |
| B2 | 0.25 |
| B3 | 0.34 |
| B4 | 0.38 |
| B5 | 0.4 |
| B6 | 0.19 |

target: T1, ZIKV-VLP (Native Antigen Inc.); assay: ELISA, hybridoma supernatant (Abcam data)

| Binder | OD [OD] |
| --- | --- |
| B1 | 2.83 |
| B2 | 0.97 |
| B3 | 1.27 |
| B4 | 2.67 |
| B5 | 0.94 |
| B6 | 1.15 |

target: T1, ZIKV-VLP (Native Antigen Inc.); assay: BLI binning on ZIKV-VLP; 1st mAb (row): 242-3

| Binder | response of 2nd mAb |
| --- | --- |
| B2 | 0.005 |
| B3 | -0.0103 |
| B5 | 0.0011 |
| B6 | 0.019 |

target: T1, ZIKV-VLP (Native Antigen Inc.); assay: BLI binning on ZIKV-VLP; 1st mAb (row): C10

| Binder | response of 2nd mAb |
| --- | --- |
| B2 | 0.0363 |
| B3 | 0.0344 |
| B5 | 0.0265 |
| B6 | -0.0006 |

target: T1, ZIKV-VLP (Native Antigen Inc.); assay: BLI (Octet), supernatant IgG captured on Protein A biosensor, ZIKV-VLP 3.3 µg/mL in solution, 1:1 model

| Binder | koff [s⁻¹] |
| --- | --- |
| B1 | < 1e-07 |
| B2 | < 1e-07 |
| B4 | < 1e-07 |
| B5 | 0.000113 |
| B6 | < 1e-07 |

target: T1, ZIKV-VLP (Native Antigen Inc.); assay: BLI binning on ZIKV-VLP; 1st mAb: 11-3

| Binder | response of 2nd mAb |
| --- | --- |
| B1 | 0.06 |
| B2 | 0.4 |
| B3 | 0.47 |
| B4 | 0.42 |
| B5 | 0.52 |
| B6 | 0.34 |

target: T1, ZIKV-VLP (Native Antigen Inc.); assay: BLI binning on ZIKV-VLP; 1st mAb: 78-2

| Binder | response of 2nd mAb |
| --- | --- |
| B1 | 0.23 |
| B2 | 0.18 |
| B3 | 0.44 |
| B4 | 0.06 |
| B5 | 0.46 |
| B6 | 0.26 |

target: T1, ZIKV-VLP (Native Antigen Inc.); assay: ELISA, purified recombinant mAb

| Binder | ELISA OD [OD] |
| --- | --- |
| B2 | 3.07 |
| B5 | 3.21 |
| B6 | 3.3 |

target: T1, ZIKV-VLP (Native Antigen Inc.); assay: indirect ELISA, purified antibody serially diluted from 10 µg/ml

| Binder | EC50 [µg/mL] |
| --- | --- |
| B1 | 0.00657 |
| B3 | 0.0128 |
| B4 | 0.0319 |
| B5 | 0.00724 |

target: T1, ZIKV-VLP (Native Antigen Inc.); assay: BLI binning on ZIKV-VLP; 1st mAb: 329-2

| Binder | response of 2nd mAb |
| --- | --- |
| B1 | 0.44 |
| B2 | -0.01 |
| B3 | 0 |
| B4 | 0.33 |
| B5 | -0.01 |
| B6 | -0.03 |

target: T1, ZIKV-VLP (Native Antigen Inc.); assay: BLI binning on ZIKV-VLP; 1st mAb (row): 102-1

| Binder | response of 2nd mAb |
| --- | --- |
| B2 | 0.0181 |
| B3 | -0.004 |
| B5 | 0.0047 |
| B6 | 0.0269 |

target: T1, ZIKV-VLP (Native Antigen Inc.); assay: BLI binning on ZIKV-VLP; 1st mAb: 181-4

| Binder | response of 2nd mAb |
| --- | --- |
| B1 | 0.39 |
| B2 | 0.02 |
| B3 | 0.01 |
| B4 | 0.3 |
| B5 | 0.01 |
| B6 | -0.02 |
